T1: TX1BP3, O14907
T1 sequence (O14907 10-122, limits assumed, looked up): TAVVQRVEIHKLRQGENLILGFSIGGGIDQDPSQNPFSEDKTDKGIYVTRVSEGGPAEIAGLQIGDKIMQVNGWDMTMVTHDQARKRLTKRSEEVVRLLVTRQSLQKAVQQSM

T2: RAPGEF6, Q8TEU7
T2 sequence (Q8TEU7 525-625, limits assumed, looked up): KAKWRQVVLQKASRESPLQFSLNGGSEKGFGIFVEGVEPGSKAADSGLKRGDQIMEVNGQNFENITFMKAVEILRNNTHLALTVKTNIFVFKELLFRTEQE

T3: DLG3_2, Q92796
T3 sequence (Q92796 221-321, limits assumed, looked up): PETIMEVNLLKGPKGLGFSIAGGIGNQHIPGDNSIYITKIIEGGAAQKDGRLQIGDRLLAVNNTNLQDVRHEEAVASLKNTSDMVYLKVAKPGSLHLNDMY

T4: GRIP1_5, Q9Y3R0
T4 sequence (Q9Y3R0 568-668, limits assumed, looked up): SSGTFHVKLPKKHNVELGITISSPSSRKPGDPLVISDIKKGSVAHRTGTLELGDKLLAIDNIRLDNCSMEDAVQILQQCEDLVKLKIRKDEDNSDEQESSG

T5: LNX2_2, Q8N448
T5 sequence (Q8N448 334-432, limits assumed, looked up): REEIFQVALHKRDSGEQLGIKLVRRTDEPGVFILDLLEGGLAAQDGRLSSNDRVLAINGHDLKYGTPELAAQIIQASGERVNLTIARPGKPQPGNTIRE

T6: SNTB1, Q13884
T6 sequence (Q13884 107-205, limits assumed, looked up): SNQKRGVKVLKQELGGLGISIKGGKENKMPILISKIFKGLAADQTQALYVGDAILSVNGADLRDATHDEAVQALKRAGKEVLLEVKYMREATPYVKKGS

T7: FRMPD1, Q5SYB0
T7 sequence (Q5SYB0 52-145, limits assumed, looked up): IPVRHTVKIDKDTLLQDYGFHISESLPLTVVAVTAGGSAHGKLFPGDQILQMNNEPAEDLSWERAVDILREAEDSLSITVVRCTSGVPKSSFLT

T8: DLG3_1, Q92796
T8 sequence (Q92796 125-227, limits assumed, looked up): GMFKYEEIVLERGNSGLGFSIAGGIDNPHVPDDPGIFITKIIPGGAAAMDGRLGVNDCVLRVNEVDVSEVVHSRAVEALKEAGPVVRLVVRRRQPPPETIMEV

T9: MPDZ_12, O75970
T9 sequence (O75970 1857-1958, limits assumed, looked up): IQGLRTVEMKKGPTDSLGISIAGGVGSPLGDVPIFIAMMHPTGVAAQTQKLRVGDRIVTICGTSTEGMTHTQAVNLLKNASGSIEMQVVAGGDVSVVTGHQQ

T10: PARD3B_1, Q8TEW8
T10 sequence (Q8TEW8 196-299, limits assumed, looked up): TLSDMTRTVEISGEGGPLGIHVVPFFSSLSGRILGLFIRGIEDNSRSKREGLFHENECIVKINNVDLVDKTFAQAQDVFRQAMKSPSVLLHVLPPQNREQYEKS


Tests used:
Test in all cases: holdup assay
Design in all cases: key: below the threshold = too weak to quantify, mostly under pKd 3.1 to 4
Settings in all cases: plain residues with an end cap or a label only (N-terminal biotin on a linker: ado-ado)
PICK1, Q9NRD5 = biological target: PICK1, Q9NRD5
DLG4_1, P78352 = biological target: DLG4_1, P78352
GOPC, Q9HD26 = biological target: GOPC, Q9HD26
TX1BP3, O14907 = biological target: T1, TX1BP3, O14907
HTRA2, O43464 = biological target: HTRA2, O43464
MAST1, Q9Y2H9 = biological target: MAST1, Q9Y2H9
GORASP2, Q9H8Y8 = biological target: GORASP2, Q9H8Y8
MAGI2_4, Q86UL8 = biological target: MAGI2_4, Q86UL8
RAPGEF6, Q8TEU7 = biological target: T2, RAPGEF6, Q8TEU7
SCRIB_3, Q14160 = biological target: SCRIB_3, Q14160
DLG3_2, Q92796 = biological target: T3, DLG3_2, Q92796
GRIP1_5, Q9Y3R0 = biological target: T4, GRIP1_5, Q9Y3R0
PTPN3, P26045 = biological target: PTPN3, P26045
LNX2_2, Q8N448 = biological target: T5, LNX2_2, Q8N448
MAST2, Q6P0Q8 = biological target: MAST2, Q6P0Q8
SNTB1, Q13884 = biological target: T6, SNTB1, Q13884
FRMPD1, Q5SYB0 = biological target: T7, FRMPD1, Q5SYB0
TJP2_1, Q9UDY2 = biological target: TJP2_1, Q9UDY2
MAGI2_5, Q86UL8 = biological target: MAGI2_5, Q86UL8
Inadl_3, Q8NI35 = biological target: Inadl_3, Q8NI35
Inadl_8, Q8NI35 = biological target: Inadl_8, Q8NI35
FRMPD2_2, Q68DX3 = biological target: FRMPD2_2, Q68DX3
FRMPD2_1, Q68DX3 = biological target: FRMPD2_1, Q68DX3
DLG3_1, Q92796 = biological target: T8, DLG3_1, Q92796
MPDZ_12, O75970 = biological target: T9, MPDZ_12, O75970
Inadl_6, Q8NI35 = biological target: Inadl_6, Q8NI35
PARD3B_1, Q8TEW8 = biological target: T10, PARD3B_1, Q8TEW8

MAST2, Q6P0Q8, sequence (Q6P0Q8 1099-1202): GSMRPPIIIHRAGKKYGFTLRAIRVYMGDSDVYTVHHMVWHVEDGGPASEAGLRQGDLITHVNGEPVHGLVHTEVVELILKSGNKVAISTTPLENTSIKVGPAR
TJP2_1, Q9UDY2, sequence (Q9UDY2 24-128): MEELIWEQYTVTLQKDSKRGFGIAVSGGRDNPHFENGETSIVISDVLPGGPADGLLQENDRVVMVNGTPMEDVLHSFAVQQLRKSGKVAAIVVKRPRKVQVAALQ
DLG4_1, P78352, sequence (P78352 62-152): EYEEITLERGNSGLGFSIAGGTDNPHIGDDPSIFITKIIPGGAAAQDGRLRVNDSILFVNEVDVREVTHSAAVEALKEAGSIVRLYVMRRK
PICK1, Q9NRD5, sequence (Q9NRD5 17-115): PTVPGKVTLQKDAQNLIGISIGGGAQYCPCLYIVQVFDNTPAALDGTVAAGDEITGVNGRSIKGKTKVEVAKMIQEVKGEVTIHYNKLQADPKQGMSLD
FRMPD2_2, Q68DX3, sequence (Q68DX3 944-1038): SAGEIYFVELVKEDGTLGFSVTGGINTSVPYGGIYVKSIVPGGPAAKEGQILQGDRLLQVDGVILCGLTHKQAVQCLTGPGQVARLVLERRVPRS
Inadl_8, Q8NI35, sequence (Q8NI35 1425-1530): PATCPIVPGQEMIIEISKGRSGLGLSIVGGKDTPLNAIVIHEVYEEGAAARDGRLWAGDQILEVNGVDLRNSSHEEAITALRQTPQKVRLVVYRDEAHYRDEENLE
FRMPD2_1, Q68DX3, sequence (Q68DX3 770-861): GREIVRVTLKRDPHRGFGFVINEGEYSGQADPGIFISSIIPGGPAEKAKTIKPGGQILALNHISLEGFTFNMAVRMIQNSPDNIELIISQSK
MAST1, Q9Y2H9, sequence (Q9Y2H9 962-1065): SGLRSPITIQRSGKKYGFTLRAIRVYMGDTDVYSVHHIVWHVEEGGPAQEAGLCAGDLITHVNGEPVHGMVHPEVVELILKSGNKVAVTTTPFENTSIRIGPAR
MAGI2_4, Q86UL8, sequence (Q86UL8 772-865): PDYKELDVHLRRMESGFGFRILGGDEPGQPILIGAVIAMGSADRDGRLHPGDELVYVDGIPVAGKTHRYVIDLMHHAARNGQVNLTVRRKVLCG
Inadl_3, Q8NI35, sequence (Q8NI35 359-469): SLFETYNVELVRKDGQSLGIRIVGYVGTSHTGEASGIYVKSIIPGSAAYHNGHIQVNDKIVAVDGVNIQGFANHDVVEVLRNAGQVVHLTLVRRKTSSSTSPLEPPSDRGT
SCRIB_3, Q14160, sequence (Q14160 999-1103): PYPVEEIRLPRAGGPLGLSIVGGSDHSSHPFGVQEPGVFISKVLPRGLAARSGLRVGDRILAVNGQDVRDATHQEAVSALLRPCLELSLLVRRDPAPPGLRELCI
Inadl_6, Q8NI35, sequence (Q8NI35 1058-1167): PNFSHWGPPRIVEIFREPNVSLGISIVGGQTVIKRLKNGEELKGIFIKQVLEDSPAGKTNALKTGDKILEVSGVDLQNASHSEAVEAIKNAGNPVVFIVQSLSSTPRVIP
PTPN3, P26045, sequence (P26045 505-587): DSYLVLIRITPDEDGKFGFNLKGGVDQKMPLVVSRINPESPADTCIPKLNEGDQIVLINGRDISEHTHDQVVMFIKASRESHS
MAGI2_5, Q86UL8, sequence (Q86UL8 915-1017): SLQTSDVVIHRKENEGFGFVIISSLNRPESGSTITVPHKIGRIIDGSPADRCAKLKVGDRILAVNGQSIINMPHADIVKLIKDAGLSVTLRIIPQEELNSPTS
HTRA2, O43464, sequence (O43464 355-458): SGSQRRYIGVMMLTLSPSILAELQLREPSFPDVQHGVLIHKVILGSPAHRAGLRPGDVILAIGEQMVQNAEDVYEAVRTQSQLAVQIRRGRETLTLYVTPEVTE

Binder	pKd (PICK1, Q9NRD5)	pKd (DLG4_1, P78352)	pKd (GOPC, Q9HD26)	pKd (TX1BP3, O14907)	pKd (HTRA2, O43464)	pKd (MAST1, Q9Y2H9)	pKd (GORASP2, Q9H8Y8)	pKd (MAGI2_4, Q86UL8)	pKd (RAPGEF6, Q8TEU7)	pKd (SCRIB_3, Q14160)	pKd (DLG3_2, Q92796)	pKd (GRIP1_5, Q9Y3R0)	pKd (PTPN3, P26045)	pKd (LNX2_2, Q8N448)	pKd (MAST2, Q6P0Q8)	pKd (SNTB1, Q13884)	pKd (FRMPD1, Q5SYB0)	pKd (TJP2_1, Q9UDY2)	pKd (MAGI2_5, Q86UL8)	pKd (Inadl_3, Q8NI35)	other results
RALRASESGI [ADGRE5, P48960]	below the threshold	below the threshold	below the threshold	below the threshold	below the threshold	below the threshold	below the threshold	below the threshold	below the threshold	below the threshold	below the threshold	below the threshold	4.13	below the threshold	3.82	below the threshold	below the threshold	below the threshold	below the threshold	below the threshold	pKd (Inadl_8, Q8NI35): below the threshold; pKd (FRMPD2_2, Q68DX3): below the threshold; pKd (FRMPD2_1, Q68DX3): below the threshold; pKd (DLG3_1, Q92796): below the threshold; pKd (MPDZ_12, O75970): below the threshold; pKd (Inadl_6, Q8NI35): below the threshold; pKd (PARD3B_1, Q8TEW8): below the threshold
SRPRPDDLEI [GJA1, P17302]	below the threshold	below the threshold	below the threshold	below the threshold	below the threshold	below the threshold	below the threshold	below the threshold	below the threshold	below the threshold	below the threshold	below the threshold	below the threshold	below the threshold	3.75	below the threshold	below the threshold	below the threshold	below the threshold	3.47	pKd (Inadl_8, Q8NI35): below the threshold; pKd (FRMPD2_2, Q68DX3): below the threshold; pKd (FRMPD2_1, Q68DX3): below the threshold; pKd (DLG3_1, Q92796): below the threshold; pKd (MPDZ_12, O75970): below the threshold; pKd (Inadl_6, Q8NI35): below the threshold; pKd (PARD3B_1, Q8TEW8): below the threshold

Continued, in another order:

pKd (PICK1, Q9NRD5)	pKd (DLG4_1, P78352)	pKd (GOPC, Q9HD26)	pKd (TX1BP3, O14907)	pKd (HTRA2, O43464)	pKd (MAST1, Q9Y2H9)	pKd (GORASP2, Q9H8Y8)	pKd (MAGI2_4, Q86UL8)	pKd (RAPGEF6, Q8TEU7)	pKd (SCRIB_3, Q14160)	pKd (DLG3_2, Q92796)	pKd (GRIP1_5, Q9Y3R0)	pKd (PTPN3, P26045)	pKd (LNX2_2, Q8N448)	pKd (MAST2, Q6P0Q8)	pKd (SNTB1, Q13884)	pKd (FRMPD1, Q5SYB0)	pKd (TJP2_1, Q9UDY2)	pKd (MAGI2_5, Q86UL8)	pKd (Inadl_3, Q8NI35)	Binder	other results
3.99	3.51	below the threshold	below the threshold	below the threshold	3.92	below the threshold	below the threshold	below the threshold	3.92	below the threshold	below the threshold	3.78	below the threshold	4.46	below the threshold	below the threshold	below the threshold	below the threshold	3.92	GCQGETEDVL [PTH2R, P49190]	pKd (Inadl_8, Q8NI35): below the threshold; pKd (FRMPD2_2, Q68DX3): below the threshold; pKd (FRMPD2_1, Q68DX3): below the threshold; pKd (DLG3_1, Q92796): below the threshold; pKd (MPDZ_12, O75970): below the threshold; pKd (Inadl_6, Q8NI35): below the threshold; pKd (PARD3B_1, Q8TEW8): 4.05
4.3	4.71	4.4	below the threshold	4.18	4.74	4.64	4.53	below the threshold	4.06	4.89	below the threshold	3.75	5.56	5.23	4.58	below the threshold	3.81	4.63	4.65	PMESGICTIV [TTC24, A2A3L6]	pKd (Inadl_8, Q8NI35): 4.19; pKd (FRMPD2_2, Q68DX3): 4.29; pKd (FRMPD2_1, Q68DX3): 3.56; pKd (DLG3_1, Q92796): 4.18; pKd (MPDZ_12, O75970): below the threshold; pKd (Inadl_6, Q8NI35): 4; pKd (PARD3B_1, Q8TEW8): 4.26

From paper PMC9482650, “Quantitative fragmentomics allow affinity mapping of interactomes” (Nature Communications, 2022)
